Laboratory results as given in patent US20220340678A1.

Columns and labels:
[1] = target: biotinylated human uPAR (human), Q03405; test: BLI (Octet) competition on biotinylated human uPAR; competitor (first antibody): M5
[2] = target: human uPAR expressed on HEK293 cells (human), Q03405; test: flow cytometry, HEK293 cells expressing human uPAR, 100 nM uPA present
[3] = target: biotinylated human uPAR (human), Q03405; test: BLI (Octet) competition on biotinylated human uPAR; competitor (first antibody): M1
[4] = target: biotinylated human uPAR (human), Q03405; test: BLI (Octet) competition on biotinylated human uPAR; competitor (first antibody): ATN-368 (ATN-658)
[5] = target: biotinylated human uPAR (human), Q03405; test: BLI (Octet) on biotinylated human uPAR; row 'None': no first antibody

B1: ATN-658 (antibody)
chain 1: not shown
chain 2: VQLQESGPELVKTGASVKISCKASGYSFTSYYMHWVKQSHGKSLEWIGEINPYNGGASYNQKIKGRATFTVDTSSRTAYMQFNSLTSEDSAVYYCARSIYGHSVLDYWGQGTTVTVS
modifications: not checked
- response in competition assay [1]: 0.387
- EC50 [2]: 3.99 nM
- response in competition assay [3]: -0.0144
- response in competition assay [4]: -0.0274
- response in competition assay [5]: 0.33
